Test results: article PMC4132713
Where “and” joins values, the source holds several entries; their conditions need not be identical. Identical values can stand only once.

Tests used:
Details in all cases: SPR: TBS (50 mM Tris-HCl, 150 mM NaCl, pH 6.8) or TBS-KCl (150 mM KCl instead of NaCl), 1-32 nM DARPin on 300-500 RU biotinylated DNA; ELISA: 100 nM …
[1] = system: DARPin 1C11 (synthetic construct); assay: SPR
[2] = system: DARPin 2D10 (synthetic construct); assay: SPR
[3] = system: DARPin 1H4 (synthetic construct); assay: SPR
[4] = system: DARPin 2C10 (synthetic construct); assay: SPR
[5] = system: DARPin 1G11 (synthetic construct); assay: SPR
[6] = system: DARPin 1C7 (synthetic construct); assay: SPR
[7] = system: DARPin 1C6 (synthetic construct); assay: SPR
[8] = system: DARPin 2G7 (synthetic construct); assay: SPR
[9] = system: DARPin 1G2 (synthetic construct); assay: SPR
[10] = system: DARPin 1C11 (synthetic construct); assay: SPR; remark: listed apart in the source
[11] = system: DARPin 2D10 (synthetic construct); assay: SPR; remark: listed apart in the source
[12] = system: DARPin 2E4 (synthetic construct); assay: SPR
[13] = system: DARPin 1H4 (synthetic construct); assay: SPR; remark: listed apart in the source
[14] = system: DARPin 2C10 (synthetic construct); assay: SPR; remark: listed apart in the source
[15] = system: DARPin 1C7 (synthetic construct); assay: SPR; remark: listed apart in the source
[16] = system: DARPin 2G10 (synthetic construct); assay: SPR
[17] = system: DARPin 2G7 (synthetic construct); assay: SPR; remark: listed apart in the source
[18] = system: DARPin 1G2 (synthetic construct); assay: SPR; remark: listed apart in the source
[19] = system: DARPin 2E4 (synthetic construct); assay: SPR; remark: listed apart in the source
[20] = system: DARPin 2G10 (synthetic construct); assay: SPR; remark: listed apart in the source
[21] = system: DARPin 1C11 (synthetic construct); assay: competition SPR
[22] = system: DARPin 2D10 (synthetic construct); assay: competition SPR
[23] = system: DARPin 1H4 (synthetic construct); assay: competition SPR
[24] = system: DARPin 2C10 (synthetic construct); assay: competition SPR
[25] = system: DARPin 1C7 (synthetic construct); assay: competition SPR
[26] = system: DARPin 1C6 (synthetic construct); assay: competition SPR
[27] = system: DARPin 2G7 (synthetic construct); assay: competition SPR
[28] = system: DARPin 1G2 (synthetic construct); assay: competition SPR
[29] = system: DARPin 1C11 (synthetic construct); assay: competition SPR; remark: listed apart in the source
[30] = system: DARPin 2D10 (synthetic construct); assay: competition SPR; remark: listed apart in the source
[31] = system: DARPin 2E4 (synthetic construct); assay: competition SPR
[32] = system: DARPin 1H4 (synthetic construct); assay: competition SPR; remark: listed apart in the source
[33] = system: DARPin 2C10 (synthetic construct); assay: competition SPR; remark: listed apart in the source
[34] = system: DARPin 1C7 (synthetic construct); assay: competition SPR; remark: listed apart in the source
[35] = system: DARPin 2G7 (synthetic construct); assay: competition SPR; remark: listed apart in the source
[36] = system: DARPin 1G2 (synthetic construct); assay: competition SPR; remark: listed apart in the source

## TTAGGGTTAGGGTTAGGGTTAGGG [tel (biotinylated)]
[1]
  Kd: 53 nM
[2]
  Kd: 34 nM
[3]
  Kd: 62 nM
[4]
  Kd: 48 nM
[5]
  Kd: 72 nM
[6]
  Kd: 37 nM
[7]
  Kd: 16 nM
[8]
  Kd: 20 nM
[9]
  Kd: 53 nM
[10]
  Kd: 11 nM and 8.9 nM
[11]
  Kd: 18 nM and 22 nM
[12]
  Kd: 4.6 nM and 42 nM
[13]
  Kd: 15 nM and 14 nM
[14]
  Kd: 20 nM and 35 nM
[15]
  Kd: 15 nM and 3.3 nM
[16]
  Kd: 65 nM and 15 nM
[17]
  Kd: 10 nM and 5.5 nM
[18]
  Kd: 7.9 nM and 3.3 nM

## TGAGGGTGGGTAGGGTGGGTAA [c-MYC]
[1]
  Kd: 49 nM
[19]
  Kd: 64 nM
[5]
  Kd: 19 nM
[6]
  Kd: 81 nM
[20]
  Kd: 90 nM
[9]
  Kd: 43 nM
[10]
  Kd: 17 nM and 6.8 nM
[12]
  Kd: 28 nM and 19 nM
[16]
  Kd: 100 nM and 15 nM
[18]
  Kd: 16 nM and 14 nM

## TTAGGGTTAGGGTTAGGGTTAGGG [tel (non-biotinylated)]
[21]
  Kd: 100 nM
[22]
  Kd: 110 nM
[23]
  Kd: 81 nM
[24]
  Kd: 67 nM
[25]
  Kd: 110 nM
[26]
  Kd: 56 nM
[27]
  Kd: 32 nM
[28]
  Kd: 69 nM
[29]
  Kd: 72 nM
[30]
  Kd: 160 nM
[31]
  Kd: 120 nM
[32]
  Kd: 19 nM
[33]
  Kd: 160 nM
[34]
  Kd: 160 nM
[35]
  Kd: 8 nM
[36]
  Kd: 3.6 nM

## CAGGGGTGTGGGGACAGGGGTGTGGGGAC [ILPR]
[1]
  Kd: 43 nM
[5]
  Kd: 44 nM
[6]
  Kd: 33 nM
[9]
  Kd: 27 nM
[10]
  Kd: 12 nM and 4 nM
[15]
  Kd: 21 nM and 14 nM
[16]
  Kd: 22 nM and 19 nM
[18]
  Kd: 9.4 nM and 6.4 nM
